B1: human Hsp90β K607A (natural protein)
chain: not shown
notes: Hsp90β, human; pET28 vector, site-directed mutagenesis; source: E. coli BL21 (DE3) cod+, purified (HisTrap, Resource Q, Superdex 200)
B2: human Hsp90β K607I (natural protein)
chain: not shown
notes: as for B1
B3: human Hsp90β K607R (natural protein)
chain: not shown
notes: as for B1
B4: human Hsp90β K607E (natural protein)
chain: not shown
notes: as for B1

Biological target: the molecule itself
Assay: SEC; Hsp90 dimerization assay: dilution series on Superdex 200 increase 10/300 GL (Shimadzu HPLC), fluorescence detection, 25 °C, 40 mM Hepes pH 7.5, 150 mM KCl, 5 mM MgCl2, 2 mM DTT; human Hsp90β 2 nM to 4 µM, yeast Hsp90 16 nM to 2 µM; KD = KD(app) divided by the dilution factor (about 4); dimer to monomers

Protein | binding result
B1 | binds
B2 | binds
B3 | binds
B4 | binds

— PMC7057950 (Nature Communications, 2020)
